This is an account of results in patent US7638487B2, “Lactoferrin in the reduction of pain” (Agennix, Inc., priority 2002, dated 2009).

Assay [1] has as its system radiant heat-induced tail-flick response in mice. Nature of the assay: Tail flick test, radiant heat-induced pain in mice. It is filed as in vivo. On the procedure: The tail flick test measures the time (max 15 s) required to elicit a radiant heat-induced tail-flick response in mice. Mice received 1000 mg/kg rhLF or placebo orally 60 minutes prior to test (N=5 per group).
On the technique in general: In hot-plate and tail-flick tests a longer latency is read as antinociception.

Assay [2] deals with phenylquinone-induced writhes in mice. Nature of the assay: Phenylquinone (PQ)-induced writhing test in mice. It is filed as in vivo. On the procedure: The PQ test measures the number of writhes seen during a 5-10 minute period following IP injection of phenylquinone in mice (2 mg/kg) (N=3). Mice received 1000 mg/kg rhLF or placebo orally 60 minutes prior to test (N=5 per group).
For orientation: In writhing tests, fewer writhes than in controls are read as antinociception.

B1: recombinant human lactoferrin (protein, UniProt P02788 20-710, looked up)
Lactotransferrin: GRRRSVQWCAVSQPEATKCFQWQRNMRKVRGPPVSCIKRDSPIQCIQAIAENRADAVTLDGGFIYEAGLAPYKLRPVAAEVYGTERQPRTHYYAVAVVKKGGSFQLNELQGLKSCHTGLRRTAGWNVPIGTLRPFLNWTGPPEPIEAAVARFFSASCVPGADKGQFPNLCRLCAGTGENKCAFSSQEPYFSYSGAFKCLRDGAGDVAFIRESTVFEDLSDEAERDEYELLCPDNTRKPVDKFKDCHLARVPSHAVVARSVNGKEDAIWNLLRQAQEKFGKDKSPKFQLFGSPSGQKDLLFKDSAIGFSRVPPRIDSGLYLGSGYFTAIQNLRKSEEEVAARRARVVWCAVGEQELRKCNQWSGLSEGSVTCSSASTTEDCIALVLKGEADAMSLDGGYVYTAGKCGLVPVLAENYKSQQSSDPDPNCVDRPVEGYLAVAVVRRSDTSLTWNSVKGKKSCHTAVDRTAGWNIPMGLLFNQTGSCKFDEYFSQSCAPGSDPRSNLCALCIGDEQGENKCVPNSNERYYGYTGAFRCLAENAGDVAFVKDVTVLQNTDGNNNEAWAKDLKLADFALLCLDGKRKPVTEARSCHLAMAPNHAVVSRMDKVERLKQVLLHQQAKFGRNGSDCPDKFCLFQSETKNLLFNDNTECLARLHGKTTYEKYLGPQYVAGITNLKKCSTSPLLEACEFLRK
Turning to B1, in assay [1] (1000 mg/kg orally 60 minutes prior to test, vs placebo (FIG. 1)), the “reduction in pain as measured by number of tail flicks observed” value is reported as “statistically significant reduction in pain”. Besides, in assay [1] (1000 mg/kg orally, time zero (FIG. 1)), the “difference in tail flick response between placebo and treated groups at time zero” value is “No difference in response”. Besides, the “reduction in pain as measured by number of writhes observed” value in assay [2] (1000 mg/kg orally 60 minutes prior to test, IP phenylquinone 2 mg/kg, writhes during 5-10 minute period, vs placebo (FIG. 2)) is listed as “reduction in pain”. Also, in assay [2] (1000 mg/kg orally, time zero (FIG. 2)), the “difference in writhing response between placebo and treated groups at time zero” value is recorded as “No difference in response”.
